The values below come from patent CN111393529A (KANGYUAN BOCHUANG BIO TECH BEIJING CO LTD, dated 2020).

This assay concerns the target T1, OX40蛋白胞外区与小鼠IgG2a-FC的融合蛋白 (human; mouse, UniProt P43489 29-214).
T1 construct: also called 抗原OX40小鼠IgG2a Fc标签蛋白; 实施例1中的融合蛋白; not shown: Mouse IgG2a Fc, from Genbank AAH31470.1
T1 sequence: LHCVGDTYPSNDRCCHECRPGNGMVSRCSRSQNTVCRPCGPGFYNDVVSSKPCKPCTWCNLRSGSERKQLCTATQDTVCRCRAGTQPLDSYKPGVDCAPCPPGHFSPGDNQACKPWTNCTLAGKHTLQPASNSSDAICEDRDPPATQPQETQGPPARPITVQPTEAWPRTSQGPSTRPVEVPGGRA
The experiment in a line: SPR, Biacore T200, antibody captured on CM5 chip, OX40-mouse IgG2a Fc as analyte.

B1: 抗体I3E3 (antibody, V domains shown)
VH: EVKLVESGGGLVQPGGSLRLSCATSGFTFSDFYMGWVRQPPGKRLEWIAASRNKAYDYTTAYSASVKGRFIVSRDTSQSILYLQMNALRAEDTAIYYCARDDGYYPMDYWGQGTSVTVSS
VL: DIQLTQSPASLAVSLGQRATISCRASKSVSTSGYSYMHWYQQKPGQPPKLLIYLASNLESGVPARFSGSGSGTDFTLNIHPVEEEDAATYYCQHSRELPLTFGAGTKLELKR
In turn, B1 had a Kd of 4.4 nM.

B2: 抗体H1K1 (antibody, V domains shown)
VH: EVQLQQPGSVLVRPGTSVKLSCKASGYTFTSSWIHWARQRPGQGLEWIGDIHPNSGNTNYNEKFKGKATLTVDTSSSTAYVDLSSLTSEDSAVYYCVRSYGNYKDYYGMDYWGQGTSVTVSS
VL: DILMTQSPASLAVSLGQRATISCKASQSVDYDGDSYMNWYQQKPGQPPKLLIYAASNLESGIPARFSGSGSGTDFTLNIHPVEEEDAATYYCQQSNEDPYTFGGGTKLEIKR
Molecule B2 displayed an equilibrium dissociation constant (Kd) of 11 nM.

B3: 抗体H1E6 (antibody, V domains shown)
VH: EVKLVESGAELVKPGTSVRLSCKASGYTFTSYDINWVRQRPEQGLEWIGWIFPGDGSTKYNEKFKGKATLTTDKSSSTVYMQLSRLTSEDSAVYFCARWDGYYEGDYFDNWGQGTTLTVSS
VL: DIVMTQSPSSLSASLGGKVTITCKASQDINKYIAWYQHKPGKGPRLLIHYTSTLQPGIPSRFSGSGSGRDYSFNISNLEPEDIATYYCLQYVNLYTFGGGTKLEIKR
The molecule B3 displayed a Kd of 5.1 nM.
